IntAct's records for PubMed 31515488
Positions count from the first letter of the chain named.

B1: Syntenin-2 (Homo sapiens), Q9H190 (parent)
chain: MSSLYPSLEDLKVDQAIQAQVRASPKMPALPVQATAISPPPVLYPNLAELENYMGLSLSSQEVQESLLQIPEGDSTAVSGPGPGQMVAPVTGYSLGVRRAEIKPGVREIHLCKDERGKTGLRLRKVDQGLFVQLVQANTPASLVGLRFGDQLLQIDGRDCAGWSSHKAHQVVKKASGDKIVVVVRDRPFQRTVTMHKDSMGHVGFVIKKGKIVSLVKGSSAARNGLLTNHYVCEVDGQNVIGLKDKKIMEILATAGNVVTLTIIPSVIYEHMVKKLPPVLLHHTMDHSIPDA
partner: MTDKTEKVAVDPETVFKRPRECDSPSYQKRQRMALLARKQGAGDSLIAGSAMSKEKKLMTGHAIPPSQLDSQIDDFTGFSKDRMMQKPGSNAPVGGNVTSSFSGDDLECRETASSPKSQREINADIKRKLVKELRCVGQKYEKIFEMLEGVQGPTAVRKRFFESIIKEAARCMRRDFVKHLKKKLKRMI
B2: Microtubule-associated tumor suppressor candidate 2 (Homo sapiens), Q5JR59-3 (parent)
chain: MGHCCCKPYNCLQCLDKTNESALVKEKELSIELANIRDEVAFHTAKCEKLQKEKEELERRFEDEVKRLGWQQQAELQELEERLQLQFEAEMARLQEEHGDQLLSIRCQHQEQVEDLTASHDAALLEMENNHTVAITILQDDHDHKVQELMSTHELEKKELEENFEKLRLSLQDQVDTLTFQSQSLRDRARRFEEALRKNTEEQLEIALAPYQHLEEDMKSLKQVLEMKNQQIHEQEKKILELEKLAEKNIILEEKIQVLQQQNEDLKARIDQNTVVTRQLSEENANLQEYVEKETQEKKRLSRTNEELLWKLQTGDPTSPIKLSPTSPVYRGSSSGPSSPARVSTTPR
partner: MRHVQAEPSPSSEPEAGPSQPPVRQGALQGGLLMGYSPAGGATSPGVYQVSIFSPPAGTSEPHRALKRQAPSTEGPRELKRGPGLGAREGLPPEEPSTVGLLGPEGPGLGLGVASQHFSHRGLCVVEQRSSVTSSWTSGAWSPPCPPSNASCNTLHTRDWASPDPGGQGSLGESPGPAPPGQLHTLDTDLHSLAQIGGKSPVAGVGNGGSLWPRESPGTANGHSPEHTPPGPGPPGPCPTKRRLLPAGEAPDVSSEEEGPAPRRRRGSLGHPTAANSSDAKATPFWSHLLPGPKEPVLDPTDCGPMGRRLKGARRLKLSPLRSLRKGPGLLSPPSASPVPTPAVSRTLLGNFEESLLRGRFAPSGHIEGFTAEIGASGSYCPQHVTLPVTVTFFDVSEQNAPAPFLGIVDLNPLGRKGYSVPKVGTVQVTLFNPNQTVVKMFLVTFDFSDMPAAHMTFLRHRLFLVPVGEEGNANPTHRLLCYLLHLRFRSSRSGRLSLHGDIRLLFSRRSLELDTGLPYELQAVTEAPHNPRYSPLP
B3: Hematopoietic prostaglandin D synthase (Homo sapiens), O60760 (parent)
chain: MPNYKLTYFNMRGRAEIIRYIFAYLDIQYEDHRIEQADWPEIKSTLPFGKIPILEVDGLTLHQSLAIARYLTKNTDLAGNTEMEQCHVDAIVDTLDDFMSCFPWAEKKQDVKEQMFNELLTYNAPHLMQDLDTYLGGREWLIGNSVTWADFYWEICSTTLLVFKPDLLDNHPRLVTLRKKVQAIPAVANWIKRRPQTKL
partner: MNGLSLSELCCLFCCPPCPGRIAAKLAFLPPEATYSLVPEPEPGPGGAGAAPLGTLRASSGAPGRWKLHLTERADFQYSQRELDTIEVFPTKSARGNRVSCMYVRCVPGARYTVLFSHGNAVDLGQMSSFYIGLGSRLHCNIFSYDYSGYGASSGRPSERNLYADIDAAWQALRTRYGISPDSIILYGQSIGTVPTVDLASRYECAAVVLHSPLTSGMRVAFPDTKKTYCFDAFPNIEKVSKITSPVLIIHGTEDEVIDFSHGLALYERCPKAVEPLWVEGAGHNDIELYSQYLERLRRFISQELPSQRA
B4: Syntenin-2 (Homo sapiens), Q9H190 (parent)
chain: B1 chain
partner: B1 partner with R83G
B5: F-box only protein 3 (Homo sapiens), Q9UK99 (parent)
chain: MAAMETETAPLTLESLPTDPLLLILSFLDYRDLINCCYVSRRLSQLSSHDPLWRRHCKKYWLISEEEKTQKNQCWKSLFIDTYSDVGRYIDHYAAIKKAWDDLKKYLEPRCPRMVLSLKEGAREEDLDAVEAQIGCKLPDDYRCSYRIHNGQKLVVPGLLGSMALSNHYRSEDLLDVDTAAGGFQQRQGLKYCLPLTFCIHTGLSQYIAVEAAEGRNKNEVFYQCPDQMARNPAAIDMFIIGATFTDWFTSYVKNVVSGGFPIIRDQIFRYVHDPECVATTGDITVSVSTSFLPELSSVHPPHYFFTYRIRIEMSKDALPEKACQLDSRYWRITNAKGDVEEVQGPGVVGEFPIISPGRVYEYTSCTTFSTTSGYMEGYYTFHFLYFKDKIFNVAIPRFHMACPTFRVSIARLEMGPDEYEEMEEEEEEEEEEDEDDDSADMDESDEDDEEERRRRVFDVPIRRRRCSRLF
B6: Phosphoserine phosphatase (Homo sapiens), P78330 (parent)
chain: MVSHSELRKLFYSADAVCFDVDSTVIREEGIDELAKICGVEDAVSEMTRRAMGGAVPFKAALTERLALIQPSREQVQRLIAEQPPHLTPGIRELVSRLQERNVQVFLISGGFRSIVEHVASKLNIPATNVFANRLKFYFNGEYAGFDETQPTAESGGKGKVIKLLKEKFHFKKIIMIGDGATDMEACPPADAFIGFGGNVIRQQVKDNAKWYITDFVELLGELEE
partner: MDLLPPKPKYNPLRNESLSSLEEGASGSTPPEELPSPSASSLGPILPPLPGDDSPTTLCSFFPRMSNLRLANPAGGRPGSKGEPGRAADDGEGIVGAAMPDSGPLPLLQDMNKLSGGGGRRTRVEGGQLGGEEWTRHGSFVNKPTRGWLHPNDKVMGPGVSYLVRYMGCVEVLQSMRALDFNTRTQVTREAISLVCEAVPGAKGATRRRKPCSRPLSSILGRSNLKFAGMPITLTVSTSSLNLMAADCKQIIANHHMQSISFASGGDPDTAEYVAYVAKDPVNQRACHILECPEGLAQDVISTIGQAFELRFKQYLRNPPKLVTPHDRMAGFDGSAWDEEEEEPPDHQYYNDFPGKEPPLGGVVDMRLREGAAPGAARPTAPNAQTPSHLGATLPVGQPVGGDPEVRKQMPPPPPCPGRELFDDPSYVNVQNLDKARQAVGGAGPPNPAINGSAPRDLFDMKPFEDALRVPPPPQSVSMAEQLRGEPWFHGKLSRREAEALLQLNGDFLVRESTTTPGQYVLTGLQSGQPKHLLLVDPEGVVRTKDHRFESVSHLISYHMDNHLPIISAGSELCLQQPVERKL
B7: Protein FAM9B (Homo sapiens), Q8IZU0 (parent)
chain: MAAWGKKHAGKDPVRDECEERNRFTETREEDVTDEHGEREPFAETDEHTGANTKKPEDTAEDLTAKRKRMKMDKTCSKTKNKSKHALRKKQLKRQKRDYIHSLKLLNVLEEYITDEQKEEEEEEGEEEELIRIFQEQQKKWQQYRSVRRERLKEMKLLRDQFVKALEDFEDLCDRVFSDEDSELDN
partner: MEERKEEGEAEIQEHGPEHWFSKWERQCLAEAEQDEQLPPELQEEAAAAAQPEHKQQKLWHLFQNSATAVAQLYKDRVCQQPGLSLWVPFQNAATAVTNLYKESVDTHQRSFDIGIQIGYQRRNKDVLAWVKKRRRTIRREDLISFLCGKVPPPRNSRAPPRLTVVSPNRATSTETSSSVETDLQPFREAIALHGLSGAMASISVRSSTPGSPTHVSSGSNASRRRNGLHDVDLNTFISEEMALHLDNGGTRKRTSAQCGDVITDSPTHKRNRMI
B8: Ribosome quality control complex subunit TCF25 (Homo sapiens), Q9BQ70 (parent)
chain: MSRRALRRLRGEQRGQEPLGPGALHFDLRDDDDAEEEGPKRELGVRRPGGAGKEGVRVNNRFELINIDDLEDDPVVNGERSGCALTDAVAPGNKGRGQRGNTESKTDGDDTETVPSEQSHASGKLRKKKKKQKNKKSSTGEASENGLEDIDRILERIEDSTGLNRPGPAPLSSRKHVLYVEHRHLNPDTELKRYFGARAILGEQRPRQRQRVYPKCTWLTTPKSTWPRYSKPGLSMRLLESKKGLSFFAFEHSEEYQQAQHKFLVAVESMEPNNIVVLLQTSPYHVDSLLQLSDACRFQEDQEMARDLVERALYSMECAFHPLFSLTSGACRLDYRRPENRSFYLALYKQMSFLEKRGCPRTALEYCKLILSLEPDEDPLCMLLLIDHLALRARNYEYLIRLFQEWEAHRNLSQLPNFAFSVPLAYFLLSQQTDLPECEQSSARQKASLLIQQALTMFPGVLLPLLESCSVRPDASVSSHRFFGPNAEISQPPALSQLVNLYLGRSHFLWKEPATMSWLEENVHEVLQAVDAGDPAVEACENRRKVLYQRAPRNIHRHVILSEIKEAVAALPPDVTTQSVMGFDPLPPSDTIYSYVRPERLSPISHGNTIALFFRSLLPNYTMEGERPEEGVAGGLNRNQGLNRLMLAVRDMMANFHLNDLEAPHEDDAEGEGEWD
partner: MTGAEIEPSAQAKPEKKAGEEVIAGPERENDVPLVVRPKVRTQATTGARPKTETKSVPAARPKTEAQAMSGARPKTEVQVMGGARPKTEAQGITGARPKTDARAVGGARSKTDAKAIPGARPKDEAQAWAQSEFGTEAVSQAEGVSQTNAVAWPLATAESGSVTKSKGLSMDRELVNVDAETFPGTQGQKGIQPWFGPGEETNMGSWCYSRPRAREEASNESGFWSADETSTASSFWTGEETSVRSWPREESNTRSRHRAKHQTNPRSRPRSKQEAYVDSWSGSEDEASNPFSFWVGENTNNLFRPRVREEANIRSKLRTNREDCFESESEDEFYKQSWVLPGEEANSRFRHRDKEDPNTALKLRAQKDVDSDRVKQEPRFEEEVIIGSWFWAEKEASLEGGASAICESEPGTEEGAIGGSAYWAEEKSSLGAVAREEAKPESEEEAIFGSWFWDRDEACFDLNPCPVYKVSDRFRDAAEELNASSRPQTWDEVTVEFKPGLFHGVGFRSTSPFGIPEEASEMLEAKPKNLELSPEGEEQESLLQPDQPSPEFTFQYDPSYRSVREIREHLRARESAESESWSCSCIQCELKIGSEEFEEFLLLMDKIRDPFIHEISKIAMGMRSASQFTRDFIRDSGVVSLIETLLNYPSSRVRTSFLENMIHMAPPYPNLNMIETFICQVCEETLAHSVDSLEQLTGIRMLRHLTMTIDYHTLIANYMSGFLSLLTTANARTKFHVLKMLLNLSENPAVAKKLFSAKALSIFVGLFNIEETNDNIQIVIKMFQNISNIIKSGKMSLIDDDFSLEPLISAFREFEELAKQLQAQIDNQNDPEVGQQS

Variants of: B1
Conditions: with ct453_human CT45A3, Q8NHU0

| Variant | effect of a mutation on the interaction |
| --- | --- |
| R223C | with no effect |

Variants of: B2
Conditions: with atosb_human ATOSB

| Variant | effect of a mutation on the interaction |
| --- | --- |
| A89V | with no effect |

Variants of: B3
Conditions: with ab17a_human ABHD17A

| Variant | effect of a mutation on the interaction |
| --- | --- |
| M128T | disrupting interaction strength |

Variants of: B4
Conditions: with ct457_human CT45A7, P0DMV0

| Variant | effect of a mutation on the interaction |
| --- | --- |
| V182M | disrupting interaction strength |
| G225R | disrupting interaction strength |
| G242R | disrupting interaction strength |

Variants of: B5
Conditions: with skp1_human SKP1, P63208
Chain of skp1_human SKP1, P63208 (P63208 whole entry): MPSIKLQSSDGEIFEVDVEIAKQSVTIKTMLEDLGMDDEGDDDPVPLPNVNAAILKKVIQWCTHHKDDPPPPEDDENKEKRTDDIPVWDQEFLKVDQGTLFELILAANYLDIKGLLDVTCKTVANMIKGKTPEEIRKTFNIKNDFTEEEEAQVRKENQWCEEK

| Variant | effect of a mutation on the interaction |
| --- | --- |
| P10S | with no effect |

Variants of: B6
Conditions: with shc1_human SHC1, P29353

| Variant | effect of a mutation on the interaction |
| --- | --- |
| T149M | with no effect |
| T152I | with no effect |

Variants of: B7
Conditions: with hapr1_human HAPSTR1, Q14CZ0

| Variant | effect of a mutation on the interaction |
| --- | --- |
| R23H | with no effect |

Variants of: B8
Conditions: with gasp2_human GPRASP2, Q96D09

| Variant | effect of a mutation on the interaction |
| --- | --- |
| V526A | with no effect |
